The record followed here is article PMC314469, “Protein Interaction Networks by Proteome Peptide Scanning” (PLoS Biology, 2004).

What all share (experiment): SPOT array
The target in assay [1] is T1, Boi1 SH3 (BOI1_YEAST), P38041.
T1 chain: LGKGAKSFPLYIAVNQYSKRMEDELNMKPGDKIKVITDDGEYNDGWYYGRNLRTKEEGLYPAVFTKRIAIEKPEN

For assay [2], the target named is T2, Boi2 SH3 (BOI2_YEAST), P39969.
T2 chain: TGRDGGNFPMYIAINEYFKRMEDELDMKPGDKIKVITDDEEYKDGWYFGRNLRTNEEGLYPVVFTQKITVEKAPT

Assay [3] concerns the target T3, Rvs167 SH3 (RV167_YEAST), P39743.
T3 chain: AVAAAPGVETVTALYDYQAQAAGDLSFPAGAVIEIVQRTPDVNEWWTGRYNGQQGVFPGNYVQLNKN

For assay [4], the target named is T4, Yfr024 SH3 (LSB3_YEAST), P43603.
T4 chain: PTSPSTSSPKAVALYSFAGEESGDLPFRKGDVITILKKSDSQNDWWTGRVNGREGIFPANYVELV

Assay [5] deals with T5, Yhr016c SH3 (YSC84_YEAST), P32793.
T5 chain: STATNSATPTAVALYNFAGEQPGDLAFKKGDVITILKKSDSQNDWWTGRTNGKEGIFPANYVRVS

Turning to VMVPHLPGKILLSN [YOR357C 104-117], the normalised SPOT signal, Boehringer light units (BLU); mean over the file's lines of this peptide worked out at 253 in assay [1]; 83.6 in assay [2]; 58 in assay [3]; 413 in assay [4]; 387 in assay [5].
The corresponding values for VLEPSKPYKKNPFM [YBR284W 663-676] are 116, 84, 5.8, 238 and 127.
The like results for VSIPFDPSKDTFDH [YEL031W 741-754] were, in that order, 105, 34.1, 72.7, 0 and 70.3.
The corresponding values for VSDPYVPTRNTFNY [YDL020C 142-155] are 174, 23.2, 60.9, 814 and 268.
As for VTLPTGPAKIIWEK [YHR007C 510-523], the normalised SPOT signal, Boehringer light units (BLU); mean over the file's lines of this peptide in assay [1] worked out at 94.8; in assay [2], 19.3; in assay [3] it was 24.1; in assay [4], 38.2; in assay [5], 143.
VQQPEDPLRVLGEY [YDR469W 143-156]: the normalised SPOT signal, Boehringer light units (BLU); mean over the file's lines of this peptide in assay [1] stood at 24.5; in assay [2], 16.6; in assay [3], 37.1; in assay [4], 46.1; in assay [5], 65.5.
The like results for VQTPHVPDRPPSQL [YPR104C 731-744] were, in that order, 53.1, 55.9, 52.6, 4140 and 845.
The like results for VSPPFFPEKELNNR [YKR010C 454-467] were, in that order, 41.2, 25.6, 32.6, 323 and 97.4.
In the case of VPPPNVPKKDKREV [YBR058C 659-672], the normalised SPOT signal, Boehringer light units (BLU); mean over the file's lines of this peptide in assay [1] was 294; in assay [2] it was 17.8; in assay [3] it was 124; in assay [4], 980; in assay [5], 206.
On to VPEPSKPSRLLLVR [YNL034W 549-562], for which the normalised SPOT signal, Boehringer light units (BLU); mean over the file's lines of this peptide in assay [1] was 61.9; in assay [2] it was 17; in assay [3], 23.1; in assay [4], 1200; in assay [5], 425.
The corresponding values for VNTPREPVRSSSKI [YJL076W 1015-1028] are 75.8, 30.9, 69.7, 910 and 99.4.
The corresponding values for VTKPVVPKKTKKSA [YLR087C 319-332] are 164, 19, 1, 861 and 136.
The corresponding values for VTLPISPSRASISF [YGL235W 70-83] are 52.6, 33.4, 25.8, 951 and 79.2.
VSTPPVPKKFQEIF [YDL107W 9-22]: the normalised SPOT signal, Boehringer light units (BLU); mean over the file's lines of this peptide in assay [1] came out at 62.2; in assay [2] it was 35.5; in assay [3] it was 53.6; in assay [4] it was 695; in assay [5], 55.4.
The like results for VMKPKSPDKEFFDA [YJR066W 1483-1496] were, in that order, 90.1, 134, 48.3, 852 and 280.
Regarding VPRPSPPIRRKSST [YNL106C 1070-1083], the normalised SPOT signal, Boehringer light units (BLU); mean over the file's lines of this peptide turned out to be 494 in assay [1]; 232 in assay [2]; 3250 in assay [3]; 23000 in assay [4]; 3880 in assay [5].
The corresponding values for VPDPSTPSKPNLEV [YML016C 62-75] are 16.2, 12.4, 19.5, 136 and 157.
The corresponding values for VPSPIVPNKMRKQL [YKL052C 214-227] are 530, 126, 202, 2650 and 191.
In the case of VPSPGLPEKVNEKS [YLR119W 34-47], the normalised SPOT signal, Boehringer light units (BLU); mean over the file's lines of this peptide in assay [1] is 80.3; in assay [2] it was 25.5; in assay [3], -0; in assay [4], 141; in assay [5], 217.
